{"source": "paper PMC9482650", "about": "“Quantitative fragmentomics allow affinity mapping of interactomes” (Nature Communications, 2022)", "binders": {"B1": {"name": "GRIA2, P42262 (peptide)", "chain": "NVYGIESVKI"}, "B2": {"name": "SLC1A1, P43005 (peptide)", "chain": "TISFTQTSQF"}}}
{"target": "T1, SNTG1, Q9NSN8", "T1 sequence (Q9NSN8 52-150, limits assumed, looked up)": "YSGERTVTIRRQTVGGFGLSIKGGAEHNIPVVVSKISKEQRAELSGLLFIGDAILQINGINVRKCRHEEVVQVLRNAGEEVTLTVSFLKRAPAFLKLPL", "assay": "holdup assay", "design": "key: below the threshold = too weak to quantify, mostly under pKd 3.1 to 4", "details": "plain residues with an end cap or a label only (N-terminal biotin on a linker: ado-ado)"}
{"binder": "B1", "pKd": 3.65}
{"binder": "B2", "pKd": "below the threshold"}
{"target": "Inadl_9, Q8NI35", "sequence (Q8NI35 1530-1615)": "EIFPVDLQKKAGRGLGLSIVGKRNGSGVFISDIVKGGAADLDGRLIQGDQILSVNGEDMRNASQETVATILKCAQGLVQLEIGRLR", "assay": "holdup assay", "design": "key: below the threshold = too weak to quantify, mostly under pKd 3.1 to 4", "details": "plain residues with an end cap or a label only (N-terminal biotin on a linker: ado-ado)"}
{"binder": "B1", "pKd": "below the threshold"}
{"binder": "B2", "pKd": "below the threshold"}
{"target": "DLG4_3, P78352", "sequence (P78352 306-403)": "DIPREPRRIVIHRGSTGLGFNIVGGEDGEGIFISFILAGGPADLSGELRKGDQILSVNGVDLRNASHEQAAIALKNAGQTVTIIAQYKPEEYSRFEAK", "assay": "holdup assay", "design": "key: below the threshold = too weak to quantify, mostly under pKd 3.1 to 4", "details": "plain residues with an end cap or a label only (N-terminal biotin on a linker: ado-ado)"}
{"binder": "B1", "pKd": "below the threshold"}
{"binder": "B2", "pKd": "below the threshold"}
{"target": "T2, TX1BP3, O14907", "T2 sequence (O14907 10-122, limits assumed, looked up)": "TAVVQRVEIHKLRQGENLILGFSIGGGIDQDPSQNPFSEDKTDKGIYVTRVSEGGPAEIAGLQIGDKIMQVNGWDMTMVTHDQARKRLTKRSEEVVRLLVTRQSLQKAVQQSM", "assay": "holdup assay", "design": "key: below the threshold = too weak to quantify, mostly under pKd 3.1 to 4", "details": "plain residues with an end cap or a label only (N-terminal biotin on a linker: ado-ado)"}
{"binder": "B1", "pKd": "below the threshold"}
{"binder": "B2", "pKd": "below the threshold"}
{"target": "DLG4_2, P78352", "sequence (P78352 155-259)": "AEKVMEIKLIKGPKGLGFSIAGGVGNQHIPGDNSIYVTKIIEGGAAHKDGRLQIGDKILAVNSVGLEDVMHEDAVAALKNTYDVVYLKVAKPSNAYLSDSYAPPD", "assay": "holdup assay", "design": "key: below the threshold = too weak to quantify, mostly under pKd 3.1 to 4", "details": "plain residues with an end cap or a label only (N-terminal biotin on a linker: ado-ado)"}
{"binder": "B1", "pKd": 3.73}
{"binder": "B2", "pKd": "below the threshold"}
{"target": "HTRA2, O43464", "sequence (O43464 355-458)": "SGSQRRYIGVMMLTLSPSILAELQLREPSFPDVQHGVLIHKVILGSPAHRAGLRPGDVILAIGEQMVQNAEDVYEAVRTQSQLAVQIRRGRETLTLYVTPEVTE", "assay": "holdup assay", "design": "key: below the threshold = too weak to quantify, mostly under pKd 3.1 to 4", "details": "plain residues with an end cap or a label only (N-terminal biotin on a linker: ado-ado)"}
{"binder": "B1", "pKd": "below the threshold"}
{"binder": "B2", "pKd": "below the threshold"}
{"target": "Inadl_1, Q8NI35", "sequence (Q8NI35 113-229)": "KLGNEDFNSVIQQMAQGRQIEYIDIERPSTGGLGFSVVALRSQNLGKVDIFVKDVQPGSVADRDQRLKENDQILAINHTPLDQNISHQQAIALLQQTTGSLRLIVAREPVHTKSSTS", "assay": "holdup assay", "design": "key: below the threshold = too weak to quantify, mostly under pKd 3.1 to 4", "details": "plain residues with an end cap or a label only (N-terminal biotin on a linker: ado-ado)"}
{"binder": "B1", "pKd": "below the threshold"}
{"binder": "B2", "pKd": "below the threshold"}
{"target": "SCRIB_3, Q14160", "sequence (Q14160 999-1103)": "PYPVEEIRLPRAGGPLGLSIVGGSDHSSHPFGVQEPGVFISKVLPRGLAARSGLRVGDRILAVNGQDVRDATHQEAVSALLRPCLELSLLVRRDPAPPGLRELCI", "assay": "holdup assay", "design": "key: below the threshold = too weak to quantify, mostly under pKd 3.1 to 4", "details": "plain residues with an end cap or a label only (N-terminal biotin on a linker: ado-ado)"}
{"binder": "B1", "pKd": 3.56}
{"binder": "B2", "pKd": 3.72}
{"target": "NHERF4_2, Q86UT5", "sequence (Q86UT5 220-308)": "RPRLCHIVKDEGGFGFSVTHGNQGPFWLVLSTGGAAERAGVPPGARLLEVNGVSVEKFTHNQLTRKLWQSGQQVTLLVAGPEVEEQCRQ", "assay": "holdup assay", "design": "key: below the threshold = too weak to quantify, mostly under pKd 3.1 to 4", "details": "plain residues with an end cap or a label only (N-terminal biotin on a linker: ado-ado)"}
{"binder": "B1", "pKd": "below the threshold"}
{"binder": "B2", "pKd": "below the threshold"}
{"target": "GOPC, Q9HD26", "assay": "holdup assay", "design": "key: below the threshold = too weak to quantify, mostly under pKd 3.1 to 4", "details": "plain residues with an end cap or a label only (N-terminal biotin on a linker: ado-ado)"}
{"binder": "B1", "pKd": "below the threshold"}
{"binder": "B2", "pKd": "below the threshold"}
{"target": "T3, LIN7B, Q9HAP6", "T3 sequence (Q9HAP6 88-185, limits assumed, looked up)": "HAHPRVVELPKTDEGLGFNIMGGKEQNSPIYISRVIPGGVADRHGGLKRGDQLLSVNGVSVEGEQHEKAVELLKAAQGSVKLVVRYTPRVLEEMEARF", "assay": "holdup assay", "design": "key: below the threshold = too weak to quantify, mostly under pKd 3.1 to 4", "details": "plain residues with an end cap or a label only (N-terminal biotin on a linker: ado-ado)"}
{"binder": "B1", "pKd": 3.74}
{"binder": "B2", "pKd": "below the threshold"}
{"target": "T4, PCLO, Q9Y6V0", "T4 sequence (Q9Y6V0 4491-4600, limits assumed, looked up)": "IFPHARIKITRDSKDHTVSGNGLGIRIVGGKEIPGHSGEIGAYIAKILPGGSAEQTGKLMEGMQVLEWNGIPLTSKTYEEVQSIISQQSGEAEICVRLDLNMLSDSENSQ", "assay": "holdup assay", "design": "key: below the threshold = too weak to quantify, mostly under pKd 3.1 to 4", "details": "plain residues with an end cap or a label only (N-terminal biotin on a linker: ado-ado)"}
{"binder": "B1", "pKd": "below the threshold"}
{"binder": "B2", "pKd": "below the threshold"}
{"target": "TJP2_1, Q9UDY2", "sequence (Q9UDY2 24-128)": "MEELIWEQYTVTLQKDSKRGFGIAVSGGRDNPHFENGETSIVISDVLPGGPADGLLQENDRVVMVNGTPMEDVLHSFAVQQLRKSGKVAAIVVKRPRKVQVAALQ", "assay": "holdup assay", "design": "key: below the threshold = too weak to quantify, mostly under pKd 3.1 to 4", "details": "plain residues with an end cap or a label only (N-terminal biotin on a linker: ado-ado)"}
{"binder": "B1", "pKd": 3.56}
{"binder": "B2", "pKd": "below the threshold"}
{"target": "PDLIM1, O00151", "sequence (O00151 1-87)": "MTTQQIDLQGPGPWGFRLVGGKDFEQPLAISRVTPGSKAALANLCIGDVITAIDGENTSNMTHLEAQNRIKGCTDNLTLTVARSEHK", "assay": "holdup assay", "design": "key: below the threshold = too weak to quantify, mostly under pKd 3.1 to 4", "details": "plain residues with an end cap or a label only (N-terminal biotin on a linker: ado-ado)"}
{"binder": "B1", "pKd": "below the threshold"}
{"binder": "B2", "pKd": "below the threshold"}
{"target": "IL16_4, Q14005", "sequence (Q14005 1229-1329)": "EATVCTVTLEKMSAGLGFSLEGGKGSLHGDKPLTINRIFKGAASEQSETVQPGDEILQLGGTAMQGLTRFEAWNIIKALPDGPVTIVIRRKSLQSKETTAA", "assay": "holdup assay", "design": "key: below the threshold = too weak to quantify, mostly under pKd 3.1 to 4", "details": "plain residues with an end cap or a label only (N-terminal biotin on a linker: ado-ado)"}
{"binder": "B1", "pKd": "below the threshold"}
{"binder": "B2", "pKd": "below the threshold"}
{"target": "T5, DLG3_1, Q92796", "T5 sequence (Q92796 125-227, limits assumed, looked up)": "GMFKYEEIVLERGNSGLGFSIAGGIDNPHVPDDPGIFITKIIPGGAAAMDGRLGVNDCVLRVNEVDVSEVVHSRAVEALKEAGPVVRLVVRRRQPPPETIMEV", "assay": "holdup assay", "design": "key: below the threshold = too weak to quantify, mostly under pKd 3.1 to 4", "details": "plain residues with an end cap or a label only (N-terminal biotin on a linker: ado-ado)"}
{"binder": "B1", "pKd": 3.5}
{"binder": "B2", "pKd": "below the threshold"}
{"target": "T6, HTRA3, P83110", "T6 sequence (P83110 354-453, limits assumed, looked up)": "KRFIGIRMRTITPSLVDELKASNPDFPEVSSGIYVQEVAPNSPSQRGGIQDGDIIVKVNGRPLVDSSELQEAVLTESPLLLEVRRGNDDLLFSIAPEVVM", "assay": "holdup assay", "design": "key: below the threshold = too weak to quantify, mostly under pKd 3.1 to 4", "details": "plain residues with an end cap or a label only (N-terminal biotin on a linker: ado-ado)"}
{"binder": "B1", "pKd": 3.64}
{"binder": "B2", "pKd": "below the threshold"}
{"target": "LAP2, Q96RT1", "sequence (Q96RT1 other isoform, or with tags, fused parts or gaps)": "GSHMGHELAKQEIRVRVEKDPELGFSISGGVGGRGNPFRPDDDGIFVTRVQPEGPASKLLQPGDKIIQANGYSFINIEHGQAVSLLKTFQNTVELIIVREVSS", "assay": "holdup assay", "design": "key: below the threshold = too weak to quantify, mostly under pKd 3.1 to 4", "details": "plain residues with an end cap or a label only (N-terminal biotin on a linker: ado-ado)"}
{"binder": "B1", "pKd": 3.56}
{"binder": "B2", "pKd": "below the threshold"}
{"target": "FRMPD2_1, Q68DX3", "sequence (Q68DX3 770-861)": "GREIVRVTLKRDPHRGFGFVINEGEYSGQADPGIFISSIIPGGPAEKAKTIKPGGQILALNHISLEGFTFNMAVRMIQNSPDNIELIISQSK", "assay": "holdup assay", "design": "key: below the threshold = too weak to quantify, mostly under pKd 3.1 to 4", "details": "plain residues with an end cap or a label only (N-terminal biotin on a linker: ado-ado)"}
{"binder": "B1", "pKd": 3.56}
{"binder": "B2", "pKd": "below the threshold"}
{"target": "TJP1_3, Q07157", "sequence (Q07157 416-512)": "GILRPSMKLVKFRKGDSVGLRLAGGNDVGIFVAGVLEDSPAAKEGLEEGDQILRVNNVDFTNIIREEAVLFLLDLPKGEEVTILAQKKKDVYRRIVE", "assay": "holdup assay", "design": "key: below the threshold = too weak to quantify, mostly under pKd 3.1 to 4", "details": "plain residues with an end cap or a label only (N-terminal biotin on a linker: ado-ado)"}
{"binder": "B1", "pKd": 3.62}
{"binder": "B2", "pKd": "below the threshold"}
{"target": "MAGI2_3, Q86UL8", "sequence (Q86UL8 600-682)": "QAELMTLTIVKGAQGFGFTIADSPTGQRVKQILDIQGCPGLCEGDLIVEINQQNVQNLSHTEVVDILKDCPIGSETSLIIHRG", "assay": "holdup assay", "design": "key: below the threshold = too weak to quantify, mostly under pKd 3.1 to 4", "details": "plain residues with an end cap or a label only (N-terminal biotin on a linker: ado-ado)"}
{"binder": "B1", "pKd": "below the threshold"}
{"binder": "B2", "pKd": "below the threshold"}
{"target": "Inadl_6, Q8NI35", "sequence (Q8NI35 1058-1167)": "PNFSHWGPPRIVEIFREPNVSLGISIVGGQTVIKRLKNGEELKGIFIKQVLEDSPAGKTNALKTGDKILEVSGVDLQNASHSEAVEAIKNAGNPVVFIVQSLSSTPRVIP", "assay": "holdup assay", "design": "key: below the threshold = too weak to quantify, mostly under pKd 3.1 to 4", "details": "plain residues with an end cap or a label only (N-terminal biotin on a linker: ado-ado)"}
{"binder": "B1", "pKd": "below the threshold"}
{"binder": "B2", "pKd": "below the threshold"}
{"target": "T7, TIAM2, Q8IVF5", "T7 sequence (Q8IVF5 885-986, limits assumed, looked up)": "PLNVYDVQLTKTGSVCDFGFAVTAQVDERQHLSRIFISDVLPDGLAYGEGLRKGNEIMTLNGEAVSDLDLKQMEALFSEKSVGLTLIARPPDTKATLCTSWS", "assay": "holdup assay", "design": "key: below the threshold = too weak to quantify, mostly under pKd 3.1 to 4", "details": "plain residues with an end cap or a label only (N-terminal biotin on a linker: ado-ado)"}
{"binder": "B1", "pKd": 4.21}
{"binder": "B2", "pKd": 4.14}
{"target": "GRIP2_4, Q9C0E4", "sequence (Q9C0E4 446-548)": "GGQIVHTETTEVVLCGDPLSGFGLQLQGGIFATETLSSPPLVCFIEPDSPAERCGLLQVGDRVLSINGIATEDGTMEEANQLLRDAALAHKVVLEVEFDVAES", "assay": "holdup assay", "design": "key: below the threshold = too weak to quantify, mostly under pKd 3.1 to 4", "details": "plain residues with an end cap or a label only (N-terminal biotin on a linker: ado-ado)"}
{"binder": "B1", "pKd": "below the threshold"}
{"binder": "B2", "pKd": "below the threshold"}
{"target": "FRMPD2_2, Q68DX3", "sequence (Q68DX3 944-1038)": "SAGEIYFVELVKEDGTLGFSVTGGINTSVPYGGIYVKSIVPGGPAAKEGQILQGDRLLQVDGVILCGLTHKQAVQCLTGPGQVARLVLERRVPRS", "assay": "holdup assay", "design": "key: below the threshold = too weak to quantify, mostly under pKd 3.1 to 4", "details": "plain residues with an end cap or a label only (N-terminal biotin on a linker: ado-ado)"}
{"binder": "B1", "pKd": "below the threshold"}
{"binder": "B2", "pKd": "below the threshold"}
{"target": "LNX1_1, Q8TBB1", "sequence (Q8TBB1 261-371)": "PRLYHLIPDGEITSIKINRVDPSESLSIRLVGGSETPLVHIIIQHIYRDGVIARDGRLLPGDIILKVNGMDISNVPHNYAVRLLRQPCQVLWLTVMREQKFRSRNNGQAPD", "assay": "holdup assay", "design": "key: below the threshold = too weak to quantify, mostly under pKd 3.1 to 4", "details": "plain residues with an end cap or a label only (N-terminal biotin on a linker: ado-ado)"}
{"binder": "B1", "pKd": 4.07}
{"binder": "B2", "pKd": "below the threshold"}
{"target": "T8, RAPGEF6, Q8TEU7", "T8 sequence (Q8TEU7 525-625, limits assumed, looked up)": "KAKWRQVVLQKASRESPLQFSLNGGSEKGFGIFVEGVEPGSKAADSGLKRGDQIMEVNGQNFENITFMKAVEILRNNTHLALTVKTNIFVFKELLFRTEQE", "assay": "holdup assay", "design": "key: below the threshold = too weak to quantify, mostly under pKd 3.1 to 4", "details": "plain residues with an end cap or a label only (N-terminal biotin on a linker: ado-ado)"}
{"binder": "B1", "pKd": "below the threshold"}
{"binder": "B2", "pKd": "below the threshold"}
{"target": "T9, PDZD2_2, O15018", "T9 sequence (O15018 329-429, limits assumed, looked up)": "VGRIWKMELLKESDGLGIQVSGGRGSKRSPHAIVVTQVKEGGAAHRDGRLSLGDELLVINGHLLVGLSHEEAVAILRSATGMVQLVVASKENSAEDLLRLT", "assay": "holdup assay", "design": "key: below the threshold = too weak to quantify, mostly under pKd 3.1 to 4", "details": "plain residues with an end cap or a label only (N-terminal biotin on a linker: ado-ado)"}
{"binder": "B1", "pKd": 3.63}
{"binder": "B2", "pKd": "below the threshold"}
